Results: patent US11833164B2, “Methods of treating Fabry disease in patients having a mutation in the GLA gene” (Amicus Therapeutics, Inc., priority 2019, dated 2023)
Substitutions are numbered along the chain they refer to. In names and notes the source's numbering stands.

System: mutant form of α-Gal A expressed in HEK-293 cells
Assay: HEK assay (GLP HEK / Migalastat Amenability Assay): α-Gal A activity in lysates of transiently transfected HEK-293 cells incubated with or without 10 μM migalastat
Type: cell-based, human
Conditions: for Absolute increase (% WT): 10 μM migalastat versus baseline; for Relative increase: 10 μM migalastat α-Gal A activity relative to baseline; for 10 μM migalastat α-Gal A activity (% WT): 5 days; for 10 μM migalastat α-Gal A activity (% WT) / Baseline α-Gal A activity (% WT): percentage of baseline wild-type α-Gal A activity; for 10 μM migalastat α-Gal A activity (% WT) / Baseline α-Gal A activity (% WT) / Baseline α-Gal A activity / 10 μM migalastat α-Gal A activity: mean ± SEM; for Baseline α-Gal A activity (% WT): absence of migalastat; for Baseline α-Gal A activity / 10 μM migalastat α-Gal A activity: lysates of HEK-293 cells transfected with the mutant form; for Baseline α-Gal A activity: incubated 5 days in the absence of migalastat; for 10 μM migalastat α-Gal A activity: incubated 5 days with 10 μM migalastat
Summary of the method: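 Activity reported as 4-MU released (nmol/mg/hr), mean±SEM, from lysates of transiently transfected HEK-293 cells expressing mutant α-Gal A, cultured with or without 10 μM migalastat.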

B1: G150V (protein)
chain: MQLRNPELHLGCALALRFLALVSWDIPGARALDNGLARTPTMGWLHWERFMCNLDCQEEPDSCISEKLFMEMAELMVSEGWKDAGYEYLCIDDCWMAPQRDSEGRLQADPQRFPHGIRQLANYVHSKGLKLGIYADVGNKTCAGFPGSFVYYDIDAQTFADWGVDLLKFDGCYCDSLENLADGYKHMSLALNRTGRSIVYSCEWPLYMWPFQKPNYTEIRQYCNHWRNFADIDDSWKSIKSILDWTSFNQERIVDVAGPGGWNDPDMLVIGNFGLSWNQQVTQMALWAIMAAPLFMSNDLRHISPQAKALLQDKDVIAINQDPLGKQGYQLRQGDNFEVWERPLSGLAWAVAMINRQEIGGPRSYTIAVASLGKGVACNPACFITQLLPVKRKLGFYEWTSRLRSHINPTGTVLLQLENTMQMSLKDLL
B1 was tested, and the “Absolute increase (% WT)” value was 9.2 % WT, the Relative increase was 4.3 and the “10 μM migalastat α-Gal A activity (% WT)” value was 12.1 ± 0.7 % WT. The “Baseline α-Gal A activity (% WT)” value was 2.9 ± 0.1 % WT, the “Baseline α-Gal A activity” value was 1080 ± 63 nmol/mg/h and the “10 μM migalastat α-Gal A activity” value was 4639 ± 361 nmol/mg/h.

B2: Q157K (protein)
chain: B1 chain with V150G, Q157K
For B2, the “Absolute increase (% WT)” value was 55.6 % WT, the Relative increase was 3.2 and the “10 μM migalastat α-Gal A activity (% WT)” value was 79.7 ± 5 % WT. The “Baseline α-Gal A activity (% WT)” value was 24.1 ± 1.8 % WT, the “Baseline α-Gal A activity” value was 9815 ± 1083 nmol/mg/h and the “10 μM migalastat α-Gal A activity” value was 31331 ± 2428 nmol/mg/h.

B3: Y152F (protein)
chain: B1 chain with V150G, Y152F
With B3 the “Absolute increase (% WT)” value was 11.4 % WT, the Relative increase was 1.3 and the “10 μM migalastat α-Gal A activity (% WT)” value was 56.8 ± 2.7 % WT. The “Baseline α-Gal A activity (% WT)” value was 45.4 ± 2.6 % WT, the “Baseline α-Gal A activity” value was 18675 ± 907 nmol/mg/h and the “10 μM migalastat α-Gal A activity” value was 23612 ± 1095 nmol/mg/h.

B4: T158A (protein)
chain: B1 chain with V150G, T158A
With B4 the “Absolute increase (% WT)” value was 28.7 % WT, the Relative increase was 1.7 and the “10 μM migalastat α-Gal A activity (% WT)” value was 67.3 ± 3.1 % WT. The “Baseline α-Gal A activity (% WT)” value was 38.6 ± 2.5 % WT, the “Baseline α-Gal A activity” value was 14835 ± 1107 nmol/mg/h and the “10 μM migalastat α-Gal A activity” value was 25678 ± 1673 nmol/mg/h.

B5: D153V (protein)
chain: B1 chain with V150G, D153V
In the case of B5, the “Absolute increase (% WT)” value is reported as 25.0 % WT, the Relative increase is reported as 2.2 and the “10 μM migalastat α-Gal A activity (% WT)” value is reported as 42.4 ± 1.6 % WT. For the same molecule, the “Baseline α-Gal A activity (% WT)” value was 17.4 ± 2 % WT, the “Baseline α-Gal A activity” value was 7357 ± 1139 nmol/mg/h and the “10 μM migalastat α-Gal A activity” value was 16301 ± 766 nmol/mg/h.

B6: Y152S (protein)
chain: B1 chain with V150G, Y152S
B6 was tested, and the “Absolute increase (% WT)” value was 19.6 % WT, the Relative increase was 1.7 and the “10 μM migalastat α-Gal A activity (% WT)” value was 46.7 ± 2.6 % WT. The “Baseline α-Gal A activity (% WT)” value was 27.1 ± 1.7 % WT, the “Baseline α-Gal A activity” value was 9917 ± 917 nmol/mg/h and the “10 μM migalastat α-Gal A activity” value was 16642 ± 1218 nmol/mg/h.

B7: D153H (protein)
chain: B1 chain with V150G, D153H
For B7, the “Absolute increase (% WT)” value was 20.5 % WT, the Relative increase was 1.3 and the “10 μM migalastat α-Gal A activity (% WT)” value was 81 ± 2.1 % WT. The “Baseline α-Gal A activity (% WT)” value was 60.5 ± 2.2 % WT, the “Baseline α-Gal A activity” value was 23578 ± 1741 nmol/mg/h and the “10 μM migalastat α-Gal A activity” value was 31052 ± 1774 nmol/mg/h.

B8: A156G (protein)
chain: B1 chain with V150G, A156G
For B8, the “Absolute increase (% WT)” value was 16.9 % WT, the Relative increase was 1.4 and the “10 μM migalastat α-Gal A activity (% WT)” value was 63.6 ± 4.3 % WT. For the same molecule, the “Baseline α-Gal A activity (% WT)” value was 46.7 ± 2.7 % WT, the “Baseline α-Gal A activity” value was 17406 ± 1187 nmol/mg/h and the “10 μM migalastat α-Gal A activity” value was 23415 ± 1710 nmol/mg/h.

B9: Q157E (protein)
chain: B1 chain with V150G, Q157E
With B9 the “Absolute increase (% WT)” value was 24.1 % WT, the Relative increase was 1.3 and the “10 μM migalastat α-Gal A activity (% WT)” value was 101.5 ± 6.1 % WT. The “Baseline α-Gal A activity (% WT)” value was 77.4 ± 4.1 % WT, the “Baseline α-Gal A activity” value was 28269 ± 1306 nmol/mg/h and the “10 μM migalastat α-Gal A activity” value was 37204 ± 2126 nmol/mg/h.

B10: T158I (protein)
chain: B1 chain with V150G, T158I
With B10 the “Absolute increase (% WT)” value was 18.8 % WT, the Relative increase was 1.4 and the “10 μM migalastat α-Gal A activity (% WT)” value was 67.8 ± 3.4 % WT. The “Baseline α-Gal A activity (% WT)” value was 49 ± 2.7 % WT, the “Baseline α-Gal A activity” value was 17360 ± 1159 nmol/mg/h and the “10 μM migalastat α-Gal A activity” value was 24097 ± 1695 nmol/mg/h.

B11: D153N (protein)
chain: B1 chain with V150G, D153N
B11 was tested, and the “Absolute increase (% WT)” value was 24.1 % WT, the Relative increase was 1.3 and the “10 μM migalastat α-Gal A activity (% WT)” value was 89.7 ± 4.4 % WT. The “Baseline α-Gal A activity (% WT)” value was 65.6 ± 2.8 % WT, the “Baseline α-Gal A activity” value was 29386 ± 1518 nmol/mg/h and the “10 μM migalastat α-Gal A activity” value was 39338 ± 1551 nmol/mg/h.

B12: D153Y (protein)
chain: B1 chain with V150G, D153Y
In the case of B12, the “Absolute increase (% WT)” value is reported as 23.3 % WT, the Relative increase is reported as 1.8 and the “10 μM migalastat α-Gal A activity (% WT)” value is reported as 52.4 ± 2.8 % WT. For the same molecule, the “Baseline α-Gal A activity (% WT)” value was 29.1 ± 3.1 % WT, the “Baseline α-Gal A activity” value was 12609 ± 1299 nmol/mg/h and the “10 μM migalastat α-Gal A activity” value was 22535 ± 1174 nmol/mg/h.

B13: Y151D (protein)
chain: B1 chain with V150G, Y151D
With B13 the “Absolute increase (% WT)” value was 11.5 % WT, the Relative increase was 1.4 and the “10 μM migalastat α-Gal A activity (% WT)” value was 40.8 ± 2.2 % WT. The “Baseline α-Gal A activity (% WT)” value was 29.3 ± 1.7 % WT, the “Baseline α-Gal A activity” value was 10673 ± 604 nmol/mg/h and the “10 μM migalastat α-Gal A activity” value was 15196 ± 1025 nmol/mg/h.

B14: D153A (protein)
chain: B1 chain with V150G, D153A
For B14, the “Absolute increase (% WT)” value was 21.6 % WT, the Relative increase was 1.4 and the “10 μM migalastat α-Gal A activity (% WT)” value was 81.6 ± 2.3 % WT. The “Baseline α-Gal A activity (% WT)” value was 60.1 ± 2.4 % WT, the “Baseline α-Gal A activity” value was 22606 ± 1445 nmol/mg/h and the “10 μM migalastat α-Gal A activity” value was 30854 ± 1997 nmol/mg/h.

B15: Y151S (protein)
chain: B1 chain with V150G, Y151S
For B15, the “Absolute increase (% WT)” value was 22.2 % WT, the Relative increase was 1.3 and the “10 μM migalastat α-Gal A activity (% WT)” value was 107 ± 4.9 % WT. The “Baseline α-Gal A activity (% WT)” value was 84.8 ± 4.2 % WT, the “Baseline α-Gal A activity” value was 30047 ± 1943 nmol/mg/h and the “10 μM migalastat α-Gal A activity” value was 37527 ± 2003 nmol/mg/h.

B16: Q157L (protein)
chain: B1 chain with V150G, Q157L
With B16 the “Absolute increase (% WT)” value was 60.2 % WT, the Relative increase was 5.1 and the “10 μM migalastat α-Gal A activity (% WT)” value was 74.4 ± 4.3 % WT. The “Baseline α-Gal A activity (% WT)” value was 14.3 ± 1.5 % WT, the “Baseline α-Gal A activity” value was 5734 ± 700 nmol/mg/h and the “10 μM migalastat α-Gal A activity” value was 28942 ± 2013 nmol/mg/h.

B17: Q157P (protein)
chain: B1 chain with V150G, Q157P
In the case of B17, the “Absolute increase (% WT)” value is reported as 40.6 % WT, the Relative increase is reported as 5.4 and the “10 μM migalastat α-Gal A activity (% WT)” value is reported as 49.6 ± 3.4 % WT. The “Baseline α-Gal A activity (% WT)” value was 9 ± 1 % WT, the “Baseline α-Gal A activity” value was 3887 ± 487 nmol/mg/h and the “10 μM migalastat α-Gal A activity” value was 20888 ± 1527 nmol/mg/h.

B18: Y151C (protein)
chain: B1 chain with V150G, Y151C
For B18, the “Absolute increase (% WT)” value was 13.2 % WT, the Relative increase was 1.4 and the “10 μM migalastat α-Gal A activity (% WT)” value was 45.6 ± 2 % WT. For the same molecule, the “Baseline α-Gal A activity (% WT)” value was 32.4 ± 1.5 % WT, the “Baseline α-Gal A activity” value was 11271 ± 579 nmol/mg/h and the “10 μM migalastat α-Gal A activity” value was 15859 ± 752 nmol/mg/h.
